The results in this text go back to paper PMC9830511, “Flot2 acts as a novel mediator of podocyte injury in proteinuric kidney disease” (International Journal of Biological Sciences, 2023).

The experiment has as its target T1, GST-Flot2 full length (amino acids 1-428) (mouse, UniProt Q60634 1-428).
T1 construct: it may add a CBP tag as well; also called GST-tagged Flot2
T1 sequence (looked up): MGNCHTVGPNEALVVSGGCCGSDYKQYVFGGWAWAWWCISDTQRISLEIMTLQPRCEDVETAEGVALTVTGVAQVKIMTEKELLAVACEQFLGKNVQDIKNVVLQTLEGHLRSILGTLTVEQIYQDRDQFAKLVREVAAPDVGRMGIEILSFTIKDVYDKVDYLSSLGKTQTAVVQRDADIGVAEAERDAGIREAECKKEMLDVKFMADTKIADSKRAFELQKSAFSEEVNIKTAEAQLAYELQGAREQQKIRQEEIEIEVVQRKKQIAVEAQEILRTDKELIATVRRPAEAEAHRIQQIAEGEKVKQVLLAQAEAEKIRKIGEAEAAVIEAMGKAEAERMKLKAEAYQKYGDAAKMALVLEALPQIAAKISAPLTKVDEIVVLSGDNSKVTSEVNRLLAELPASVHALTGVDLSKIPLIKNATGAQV
The experiment in a line: pull-down; GST pull-down: GST-Flot2 (full length) on GST resin, His-podocin (full length); overnight at 4 °C; eluted with 20 mM reduced glutathione; immunoblot with anti-His. To be noted: both partners purified. For orientation: A western blot detects proteins with antibodies after separation by electrophoresis.

B1: His-podocin full length (natural protein, mouse, UniProt Q91X05 1-385, looked up)
chain: MDSRARSSSREAHGRSSRSSSRDDKKAKAGRGSRGRARPDAGAERQSTGRTATRGEPRAPAATATVVDVDEVRGPGEEGTEVVALLESERPEEGIKPSGLGACEWLLVLASLIFIIMTFPFSIWFCIKVVQEYERVIIFRLGHLLPGRAKGPGLFFFLPCLDTYHKVDLRLQTLEIPFHEVVTKDMFIMEIDAVCYYRMENASLLLSSLAHVSKAIQFLVQTTMKRLLAHRSLTEILLERKSIAQDVKVALDAVTCIWGIKVERTEIKDVRLPAGLQHSLAVEAEAQRQAKVRVIAAEGEKAASESLRMAAEILSGTPAAVQLRYLHTLQSLSTEKPATVVLPLPFDMLSLLSSPGNRAQGSINYPSSSKPVEPLNPKKKDSPML
notes: Podocin, mouse, full-length cDNA in pET-28a(+); also called His-tagged podocin; His-tagged mouse podocin
As for B1, the binding result is reported as “binds”.
